Data as given in the nanobody polyreactivity screen of Harvey et al. (2022).

Test: yeast display, Sf9 membrane polyspecificity reagent, FACS + sequencing; frameworks hold sequencing errors
How it was run: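 Polyreactivity labels are assigned by the sorting gate from which each nanobody was recovered. The gates were low and high (top ~1%), set on anti-HA fluorescence for expression and streptavidin fluorescence for reagent binding. Before sorting, galactose-induced (36–48 hours) yeast display cells were stained for 1 hour at 4 °C with 10% biotinylated, detergent-solubilized Sf9 membrane reagent.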

Row | Sequence | polyreactivity (PSR sort gate)
1 | QVQLVESGGGLVQAGASLRLSCASSGFTFGYYTMGWYRQAPGKERELVAAISWSGDSTYYADSVKGRLTISRDNAKNTVYLQMNSLKPEDTAVYYCAAEVYGSWPDYDYSGQGTQVTVSS | low polyreactivity
2 | QVQLVESGGGLVQAGASLRLSSAASGFIFRDYAMGWYRQAPGKDRELVAAISRGGGTTYYEDSVKGRFTISRENAKNTVYLQMNSLTPEDTAVYYCAAKSAFPLDYWGQGTQVTVSS | high polyreactivity
3 | QVQLVESGGGLVQAGASLRVSCAASGISLKYAMVWYRQAPGKERELVASISSRGTSTYYADSVKGRFTISRDNAKNTVYLQMNCLIPEDTAVYYCAARVRWWSPGGYWGQGTQVSVSS | high polyreactivity
4 | QVQLVESGGGLVQAGASLRVSCAASGSTFNYNAMGWYRQAPGKERELVAAITYSGSSTYYSDSVKGRFTISRDNAKNTVYLQMNSLKPEYTAVYYCAADYWFRYGTYEYWGQGTQVSVSS | high polyreactivity
5 | QVQLVESGGGLVQAGCSHRLSCSSTGRTFYIYDMGRYRQAPGKERELVAVISWSGGDTNYADSVKGRFRISRDNAKNTVYLQMNSLKPEDTAVYYCAATRRDRRKSFTYRYDYWGQGTQVTVSS | high polyreactivity
6 | QVQLVESGGGLVQAGCSLRISCAASGFTFGKYAMGLYRQAPGNERELVAAITQCGGSTYYADSVKGRFTISRDNAKNTVYLQMNSLKPEYTAVYYCAADRRRQYRPGGYWGQGTQVTVSS | high polyreactivity
7 | QVQLVESGGGLVQAGCSLRISCAASGSIYATKAIGWYRQAPGKERELVASISSGGCSTYYADSVKARFTISRDNAKNTVYLQLNSLKPEDTAVYYCARRIGHGSRPYWLETWRYPYDYWGQGTQVTVSS | low polyreactivity
8 | QVQLVESGGGLVQAGCSLRLICAASGFIFPTNAMGWYRQAPGKERELVARISYGGGDTHYADSVKGRFTISRANAKTTVYLQMNSLKPEDTAVHYCAVKDGQDDYWGQGTQVTVSS | low polyreactivity
9 | QVQLVESGGGLVQAGCSLRLICAASGSTFDPNAMGWYRQSPGKERQLVAVIDSGDGTTYYADSVKGRFTISRDNAKNTVYLQMNSLKPEDTAVYYCAVDESTSYYDDHEDYWGQGTQVTVSS | low polyreactivity
10 | QVQLVESGGGLVQAGCSLRLSCAASGFIFATNTMGWYRHSPGKERELVAASSTYYAESVKGRFTISRDNAKNTVYLQMNSLKQEDTAVYYCNAYRDSYIGFVDWAGEYWGQGTQVTVSS | low polyreactivity
11 | QVQLVESGGGLVQAGCSLRLSCAASGFIFVFNAMGWYRQAPGKERELVAAINGGDITNYADSVKGRFTISRDNAKNTVYLQMNSMKPEDTAVYYCNADGYYFLISNANTLGYWGQGTQVNVSS | low polyreactivity
12 | QVQLVESGGGLVQAGCSLRLSCAASGFILTYYLMGWYRQAPGKERELVAAILSGGNTYYADSVKGRFTISRDNAQNTVYLQMNCLKPEDTAVYYFNARPRWSYGLDYWGQGTQVTVSS | high polyreactivity
13 | QVQLVESGGGLVQAGCSLRLSCAASGFTFDQYAMGWYRQAPGKEREFVAGNSYGRGRTYYADSVKGRFTISRDNAKNNFYLQMNSVKPEVTAVYYCAADGVYRYNYPYLYTYDYWGQGTQVTVSS | low polyreactivity
14 | QVQLVESGGGLVQAGCSLRLSCAASGLIFGRNVMGWYRQAPGKERELVAAISWSGGRTYYADSVKGRFTISRDNAKNTVYLQMNSLKPEDTAVYYCATDRSTRTYRSPYDYWGQGTQVTVSS | high polyreactivity
15 | QVQLVESGGGLVQAGCSLRLSCAASGRIFDFYAMGWYRHAPGKERELVAAISWDGSDTYYADSVKGRFTISRDNAKNTVYLQMNSLKPEDTAVYYCAADYYSPSGHEYNYWGQGTQVTVSS | high polyreactivity
16 | QVQLVESGGGLVQAGCSLRLSCAASGRIFGQYAMGWYRQAPGKEREFVAGISTTGGSTYYADSVKGRFTISRDNAKNTVYLQMNSLKPEDTAVYYFAVRINWSRWYHYYTYNYWGQGTQVTVSS | high polyreactivity
17 | QVQLVESGGGLVQAGCSLRLSCAASGRIFSFYAMGWYRQAPGKERELVITSGGDTNYADSVKGRFTISRDNAKNTVYLQLNSLKPEDTAVYYCNAEGDRSQPYNFDYWGQGTQVTVSS | low polyreactivity
18 | QVQLVESGGGLVQAGCSLRLSCAASGRIFSFYVMGWYRQAPGKERELVAAISLSGGSTYYADSVKGRFTISRDNAKNTVYLQMNSLKPEDTAVYYCNAVLYARLRDRWARYDYWGQGTQVTVSS | high polyreactivity
19 | QVQLVESGGGLVQAGCSLRLSCAASGRIFSYNAMGWYRPAPAKERELVAAISSDGSTYYADSVKGRFTISRDNAKNTVYLQMNSLKPEDTAVYYCAAYPRVNGNILSTGDYWGQGTQVTVSS | low polyreactivity
20 | QVQLVESGGGLVQAGCSLRLSCAASGRIFTSYAMGWYRQAPGKERELVAAISRSGARTYYADTVKGRFTISRDNAKNTVYLQMNSLKPEDTAVYDCAAVTVAGYDYWGQGTQVTVSS | high polyreactivity
21 | QVQLVESGGGLVQAGCSLRLSCAASGRIFVEYAMGWYRQAPGKVTELVAAINSGGSTNYADSVKGRFTISRDNAKNTVYLQMNSLKPEDTAVYYCNIDTLVYGYVQDYEYWGQGSQVTVSS | low polyreactivity
22 | QVQLVESGGGLVQAGCSLRLSCAASGRILFGYAMGWYRQAPGKERELVADITSTGSTNYADSVKGRFTISRDNAKNTVYLQMNSLKPEDTAVYYCNARRESYYQRYRVDYWGQGTQVTVSS | low polyreactivity

Row | Sequence | polyreactivity (PSR sort gate)
23 | QVQLVESGGGLVQAGCSLRLSCAASGRNFVHYAMGWYRQAPGKERDLVAAISWSGGNTYYADSVKGRFTISRDNAKNTVYLQMNSLKPEDTAVYYCARAPYYVASGHRRVLRPTYEYWGQGTQVTVSS | low polyreactivity
24 | QVQLVESGGGLVQAGCSLRLSCAASGRTFARYVMGWYRQAPGKEREFVATISTSGTSTYYADSVKGRFTISRDNAKNTVYLQMNSLKPAETAVYYCAARRTTRGYDYWGQGTQVTVSS | high polyreactivity
25 | QVQLVESGGGLVQAGCSLRLSCAASGRTFITNAMGWYRQAPGKVRELVAAISSGTGGRTYYADSVKGRFTISRDKAKNTVYFQMNSRKPEDTAVYYCAARSTKYYPYGYWGQGTQVTVTS | high polyreactivity
26 | QVQLVESGGGLVQAGCSLRLSCAASGRTFPPYAMGWYRQAPRKERELVAAISRRAGTTYYADSVKGRFTISRDNAKNTVYLQMNSLKPEDTAVYYCAALSESSSYGYWGQGTQVTVSS | low polyreactivity
27 | QVQLVESGGGLVQAGCSLRLSCAASGRTFVQYFMGWYRQAPGKERELVAAITSSGGSTYADSVKGRFTISRDNAKNTVFLHMNSLKPEDTAVYYCAADYLDGVGDVEHDYWGQGTQVTVSS | low polyreactivity
28 | QVQLVESGGGLVQAGCSLRLSCAASGRTFYRYTMGWYRQAPGKERELVAAISISGGSTYYSDSVKGRFTISRDNEKNTFYLQMNSLKPEDSAVYYCAATSWGTYYRRLYYWGQATQVTVSS | high polyreactivity
29 | QVQLVESGGGLVQAGCSLRLSCAASGRTFYYAMGWYRQAPGKERYADSVKGRFTISRDNAKNTVYLQMNSLKPEDTAVYYCAAKVPEPTSLDQSDYWGQGTQVTVSS | low polyreactivity
30 | QVQLVESGGGLVQAGCSLRLSCAASGSIFAVYAMGWYRQATGKERELVAAISWSVGSTYYADSVKGRFTISRDHAKNTVYFQMNSLKPEDTAVYYCAAELAYYLDYVEYFTEIDLEGYWGQGTQVTVSS | low polyreactivity
31 | QVQLVESGGGLVQAGCSLRLSCAASGSIFESYAMGWSRQAPGNERELVAAITSSGDSTYYADSVKGRFTITRDNAKNTVYIQMNSLKPEDTAVYYCANRVPTYISTADWGSRYDYWGQGTQVTVSS | low polyreactivity
32 | QVQLVESGGGLVQAGCSLRLSCAASGSIFPFNAMGWYRQAPGKERELVAAITRSGGSTYYADSVKGRFTISRDNAKNTVYLQMNSLKPEDTAVYYCATDPEWPLPAYYYWGQGTQVTVSS | low polyreactivity
33 | QVQLVESGGGLVQAGCSLRLSCAASGSIRGYAMGWSRQAPGKERELVASITWSGGSTYYADSVKGRFTMSRDNAKYTVYLQMHSLNPEDTAVYYCAASPSPYASVIRPYDYWGQGTQVTVSS | low polyreactivity
34 | QVQLVESGGGLVQAGCSLRLSCAASGSTFFYYAMGWYRQSPGKERELVARISGGGSTNYADSVKGRFTISRDNAKNTVYLQMNSLKPEDTAVYYCAADRYDYYRYSYGRYGYWGQGTQVTVSS | high polyreactivity
35 | QVQLVESGGGLVQAGCSLRLSCAASGSTFRYYAMGWYRQAPGKERELVAAINRSGGSTYYADSVKGRFTISRDNAKNTVYLQMYSLKPEDTAVYYCAAPWARHYSNPDDYWGQGTQVTVSS | high polyreactivity
36 | QVQLVESGGGLVQAGCSLRLSCASSGSIFGRYAMGWYRQAPGKERELVAAISRGGSTNYADSVKGRFTISRDNAKNTVYLQLNSLKPEDTAVYYCNRKPYYVSSTRYDYWGQGSQVTVSS | high polyreactivity
37 | QVQLVESGGGLVQAGCSLRLSCGASGSTFIHYAMGWYRQAPGTERELVAAITWDGSSTYYADSVKGRFTISLDNAKNTVYLQMNSLKPEDTAVYDCATDYAGQYPVDGQAIHDYWGQGTQVTVSS | low polyreactivity
38 | QVQLVESGGGLVQAGCSLRLSSAASGIIFSHNAMGWYRQAPGKERELVDDIDWSGGSTYYADSVKGRFTISRDNAKNTVYLQMNSLKPEDTAVYYCAAEYRDYVPVNDTGDYWGQGTQVTVSS | low polyreactivity
39 | QVQLVESGGGLVQAGCSLRLSWAASGRIFRPNSMGWYRQAPGKERELVAAITSNGGRTYYADSVKGRFTISRDNAKNTVYLQMNSLKPEDTAVYYCAKRVWYYSHKYDYWGQGTQVTVSS | high polyreactivity
40 | QVQLVESGGGLVQAGCSRRLSWAASGSTFPDYVMGWDRQAPGKERELVAAISSIGGSTYYADSVKGRFTISRDNAKNTVYLQMNSLKPEDSAVYYCAAENSYFYPFDYWGQGTQVTVSS | low polyreactivity
41 | QVQLVESGGGLVQAGCSVRLSCAASGSFFVLNSMGWYRQAPGKERELVAAIDESGGGTYYADSVKGRFTISRDNAKNTVYLQMNSLKPEDTAVYYCAADTLAPRAYDYWGQGTQVTVSS | low polyreactivity
42 | QVQLVESGGGLVQAGGCLRLSCAASGFIFDSNAMGWYRQAPGKERELVAAISRRGGSTYYADSVKGRFTISRDNAKNTVYVHMNSLKPEYTSVYYCNAEYGSHVKYGYWGQGTQVTVSS | high polyreactivity
43 | QVQLVESGGGLVQAGGCLRLSCAASGFIFRRNALGWYSEAPGKERELVAAMGSRGTATDYADSVKGRFTISRDNAKKTVYLQMNRLNPEDTAVDYCAKSVVAWGPNFRPNHTRGYYWGQGTQATVSS | low polyreactivity
